Data: publication PMC4216055 (Carcinogenesis, 2014)
Positions count from the first letter of the chain named.

B1: Human recombinant granulin-epithelin precursor (rGEP) (natural protein, UniProt P28799 14-593, looked up)
chain: LVAGTRCPDGQFCPVACCLDPGGASYSCCRPLLDKWPTTLSRHLGGPCQVDAHCSAGHSCIFTVSGTSSCCPFPEAVACGDGHHCCPRGFHCSADGRSCFQRSGNNSVGAIQCPDSQFECPDFSTCCVMVDGSWGCCPMPQASCCEDRVHCCPHGAFCDLVHTRCITPTGTHPLAKKLPAQRTNRAVALSSSVMCPDARSRCPDGSTCCELPSGKYGCCPMPNATCCSDHLHCCPQDTVCDLIQSKCLSKENATTDLLTKLPAHTVGDVKCDMEVSCPDGYTCCRLQSGAWGCCPFTQAVCCEDHIHCCPAGFTCDTQKGTCEQGPHQVPWMEKAPAHLSLPDPQALKRDVPCDNVSSCPSSDTCCQLTSGEWGCCPIPEAVCCSDHQHCCPQGYTCVAEGQCQRGSEIVAGLEKMPARRASLSHPRDIGCDQHTSCPVGQTCCPSLGGSWACCQLPHAVCCEDRQHCCPAGYTCNVKARSCEKEVVSAQPATFLARSPHVGVKDVECGEGHFCHDNQTCCRDNRQGWACCPYRQGVCCADRRHCCPAGFRCAARGTKCLRREAPRWDAPLRDPALRQLL
modifications: N-glycan (removed by PNGase F only for the gel analysis)
B2: rGEP-3A (rGEP with alanine mutations at RRH(555-557)) (natural protein, human, UniProt P28799 14-593, looked up)
chain: B1 chain with R542A, R543A, H544A

Target: the molecule itself
Assay: cross-linking

Protein	binding result
B1	binds
B2	binds
